Our source for the binding signal values is publication PMC4414246.

This series addresses U1A E19S (UniProt P09012 10-89, E19S). The experiment in a line: fluorescence polarization.

Chain of U1A E19S (P09012 10-89 E19S): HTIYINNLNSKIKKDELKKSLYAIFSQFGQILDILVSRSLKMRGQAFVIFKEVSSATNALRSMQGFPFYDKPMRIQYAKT

Take GGCAGAUCUGAGCCUGGGAGCUCUCUGCC (structured_RNA) [TAR RNA]: the binding signal is ~1.6 fold lower affinity than without tRNA.
